A short description of the data set: soluble on expression in E. coli; label from the status in PepcDB or PDB records.
With “MNILKHFPSYVGPSKIRTLVIPIGHWTRKEFNNAVQKLSEFNEIHLSDVTPIDSPIFTPQGFPHGKLFFDFLTIDHDDALELFLYDFEPFRKTFVIIGLVNDYSDPLTNLNFMKEKYPTLISPNLVYASSTPTKELEQTIDTMENVFASSPDMQKNIETIMCDIARNFLTALNSYYSSYKHVTLRSPGAIGGNAVLKTTLIRQNSYTSSSSSTPMSAVQSSVSSSSKAGSVTTASKRLSSFEMTTNSLKRSASLKLATTLSTSENRSQQKSLGRQMKILGNFQLLAGRYVDALNSFVDAITTLYKVRDYLWLGSALDGISICFLLLSYLGLSYQIPQIVSLICPVEKLNFESSSTGISPVDSNSKATASTTASSTPRNSISIAAMQSPRNSIMSLSAPALNIDVENINLPLLIKCISDKVLYYYDLSLMHNSEYAPQVVYCEFLLKTLTFMTSCYKSSEFSKDVLDNIVKNQHRALSDIPNSPMFPRFEVYFYSNKLFELQLKEMQVEAQIKIYSTMAEVYRLLGYKRKQLFVLRLLMVALLATPNKIAWHPDYRTLIDTIIELLNINESEAKINVDDPSQSTWLILQKKILQLCIKVSRKINDFEYVAKFSSILITKYTHLLNQSEQDALFKEYIQPSITNESITSYWDPFILREVVINRILDSDPTSNEIPLESDVSSLESLENRQKTQDINPQEVFNPFKRVQPTSFVSNNSTKVPILVFLVGDKAEFTCRVQNPFKFDFTINDIQLDEEISEFCEIDRKAVSYSGPYNVKAESIRSITLPLIIKKPTYKKIYEISCLKISILKLPLQKFDIINDSRRSNPVEEEAEYSKCIYGKLKIKILPEQPQLELLSTSKMTRNSWMMLDGTKTDFHITVRNKSLSCAINHIKIIPMNNIEQMLKPDYWKKMPPDDLYIMEKQLDWLSKSCVRIIKLPTVIKPNETITFDLELDNTAVPFNFTGFDLLIEYGMSATDESCIYLKKLSIPYEVTLRRTIEVPSMDIIPLNELFSSQVENVDWIEYVMSKIRAESNLHSRDFILLLLDFRNSWIDGIKLNVQFEDFTSNEYHVEASHTSRIIVPIKKIDYKKYNFENTPIPRIYPGRQFIQSGLNEEQTIEMRQKFWCREHIISKLKCNWKLTTDQSVTGSVDFNKFIEKFDHKMVYTIYPGRLFYGVQLLLDEPKVKVGEIINLKIITEPTSTCRRKQNSTVNFLDIVIFDSKTSKILPRSNRRILYNGSLTKPISTTKVSEINLEIIPIEKGRYEFSVCISKSNNQDGIIQFDSENVILSVI”, the “soluble on expression in E. coli” value is listed as “soluble”.

For “METPVPKPRTKFEPSSPEPTLPPRPPVKPPRAVANSTAVQNFGNVLGELRLNLNETISSQDPPGIGFIEVSPGTSMSPPQRHAPPPPRPPPPAGWKQHPVIPERIQLNRPLPSLPIDVSLTPVYSEPSTSSPSSTNCYENHNSSVVENPLYLSLDTYRSISGITPSPSNAPTTSPDCDELREWLTEEEENESCSSSRPENLNASIPAPIPGDDSRPSIDSEENPYTPCPRRSDYDNSEFIGSTIDPFDDSFYTDNTTNNSHQNLYVSPQFVKEKTKSECDRYENVVEICSSPDPPPTHLYVNVPPIYPSADNIISSESDDVFRDEGKMKIDGSSITFVGFVSLTSSKKEKRLHCRLRNMQLSFHDDEDSTEPSNGTFDIKGIYLFRHMASDTPYILIHVGEKRNVISFIPEDPPNLWMFFLSEAWLSLNYGLTSVLRDADELTICGITWIKHGTTGEWKICSAGINGLTLHYMLVDAKDRIYNRNSERSDAGTSFMSTVGSIIGDELVEVDLRKVMTMRERIDKSEFCPNARHKRGPFSITLHGVTLYIDSRDDSTTSHWYEAIEALLKRPATRLENLRLTGDNIPVIVDKCIRFVSAYGMKCEGIYRRNGKVTEAKTILTKLTEDPVGYYPVHENDETVYAVADVLRQFFRKLDAPLFPSSSQADLFDLATESQSDELCARYAQLINTFELVHRSTLKKLIGHLKNVSEHAQENRASVENLAKVFAASLFLTDAMDEKVFSESYNHQINVLIHLTTGYDVVFQISIEEELSRQMVNDAEKKSFNAKKPSPDFIVAIHVWEKENRPFNVKMSLASEEVCREAIAKRGFDGPPDSPYAIFECLAGGNLIRRLPNAQKMSKCVLQWIDWNCKDAYLLFDHDKYQFNGTDMSCFTGKIKIAEPGSRTFKSYEVKIENGTSIVAFRNEKLWKAWPMDDSIWYVGTEPTRKSPNLFNATMICSTKTGYSSSRFPGFCFSFKEETDRNRWLTALSHFTKSIDSEPLVYI”, the “soluble on expression in E. coli” value is “not soluble”.

With “MGSDKIHHHHHHMLKRILVIIGLAVLATACSNAPRTVSHQVISENDDIQLTGLINNLEKDNRTGIFHKVRTNRSSALMGDKALASVYNEWVGTRYRMGGTTKRGIDCSAFMQTTFSEVFGIELPRSTAEQRHLGRKINKSELKKGDLVFFRKNNHVGVYIGNNQFMHASTGQGVTISSLDEKYWARTYTQSRRIM”, the “soluble on expression in E. coli” value is given as “not soluble”.

Turning to “MASSSNFMAPPPKMNKTSSMNSLRKTLGLKKPNNGELSMVPSRPIVSPTLSSPLQGSGAAPLEKDYHSLEYRLTHGHWRIFNSKSVFGNKDASVLVFDKKSNVKAPPKLGKSKTYSMFDLIKYETQQLMGLIHPRILHMEHSLEETKDYISFATEQIFGNLENVVTDESLDRLEIKLGVLQIIDGMSYLHNSAKMLHGNLTPDAIYVTATKTWKIGGFSFAVNAKEPNCYPCYPWTKKLPPCLQPDLDFLAPENLAPGQTTVTSAADVFSLGVLICWIYAGGKRLIDAKSNLETYHIVVGQLDAALQCISNELGPNLKDSMAKVLSLDVEVRPTVQLLSLIKHFDDPCLSALRQLDDIAQVFDPSQKSHFLSQTLNVAIPHISESVWFNRVLPRFNEQLLELPEMYYPITKPLFHILEHCESHNIHKMKPWIRKLMEAAPHNKLLRAFILENMSALFRRLSDEFVEDKCLDVIILSLKSEDTSLQSSAVRGLPHVAEYLPVGFITKKLIPAIMGLPPFLHENVPRQLDLLAALAALSDRCDVSSIVHLFGCISLCNSSHPVIVHAKSRIVQRLVMRDPNRLKDSQLLSIHLLNPLVNGLACKDLSTFSCAHFDDVLSSVRILLDVLEQRRYEMEDRQEHKQSNHHLGLNRLGNRRVSMSSTNLPRVMISAARPSFSSDSRKMSFLSADGRLEDRGSRRESRDSRGSLESDMSIRIGNGSDISDDSCFSSHSAKGRRQSWLDGYGHSVSLEQNTNGFLETTSRNLGDRNSMNFKQRNARASERRARTRSPNAELDPQREQPPARPNSFTNLGHNIVLTYRNLLYKDHT”, the “soluble on expression in E. coli” value is listed as “not soluble”.

As for “MDTKHPPDPSGPSDPNINLGEFEDPVDGYADDDLLTPDDLSVSVTGMTPSRSFLETEEFETELGGVEPFEDLFNDISAHEIIQVIADGDRVGRPIVVVYAYRLPSSKEIDHARLLQYLVQIIDKIVDQDYTIVYFHYGLRSHNKPPVRWLFQAYKQLDRRFKKNLKALYVVHPTRFIRIIFSLFKGFISSKFENKFHYVMCIDELENALSVARLNLPSPIRDHDKSFSTQSNRPETPPAQPLPTQQFGVPLEFILSHCGGNIPPIVDQLIEYLEAHALTMEGVFRKSANIGSIKRLQDRINKGEKIDFENDPEYKDNEYVASLHASVLLKTFFRSLGEPLTTNRLYPKLAALSEVSKTEKSAAVKEFVKLLPRENYILLKTVIKFLTRVAENSKVNLMTANNLSVVFGPNLTWPTDQEVPISQLNNLNNFCYKLIVDYDSVFDH”, the “soluble on expression in E. coli” value is “not soluble”.

Take “MENKMESIEQQVEVLLEQEPQLLPAAMAERLGVTEFDVVAALPQEMVAISPGEQAQTILESLVGFGPVTTIVHSFGSIFEVKAPFPKGKVARGYYNLMGREGELHGHLKLDNVKNIALVSKPFMGRESHYFGFFSECGSNIFKVYLGRDEKRELIAEQVTAFRAMQAELNQLEHHHHHH”: the “soluble on expression in E. coli” value was “not soluble”.

On to “GHLYLVPTPIGNLDDMTFRAVKTLTAVDLIAAEDTRNTQKLLNHFEITTKQISFHEHNTQERIPQLIAKLKQGMQIAQVSDAGMPSISDPGHELVNACIDAHIPVVPLPGA”, for which the “soluble on expression in E. coli” value is reported as “not soluble”.

Turning to “MSILPSNTPLYSHPLPQIEQWLKDQGCQQDENELHCWRLQKPSWQAEIWLDIEQITVRYIQAGENGQNIQRSFKYSLSRQDIEQAIFCGP”, the “soluble on expression in E. coli” value is on record as “not soluble”.

Take “MGSDKIHHHHHHMNTEHAAYQIADELGGLELLNAHYHKQNFSRHTHEGYTVGVIETGAQRFYRTGGNHVAPKHSIILVNADEVHNGCSATEGGWSYRAMYPVPAQFAGINSERAANSGAPYFPEPVVYDPELAELLRLTFTTLDTSDNRLLRESLVYSSLTQLMARHGKHRPSDNLAAMAKPALALVKSFIDDHPAADISLEELATLAGLSPYYLLKQFQRYYGLPPHAYQIQARVRLAKGKIKQGTRLLDVALDCGFHDQSHLNRHFKKTVGVTPGQFAKEIGRNIIQA”: the “soluble on expression in E. coli” value is recorded as “not soluble”.

For “GSPELGFSFDYAYQPIVNLHDQSIFAHEALVRGPNGEGAMSVLNQVTDQNRYRFDQKCRTTAIAGAAKLGMTERLSINFLPNAVYRPELCIRSTLEAAKQHDFPIERLIFETIESEHVDNNNHLSNILREYREFGFMTAIDDFGAGYSGLTLLADFQPDLIKLDMNLVRDIHRDRARQAIVRGVVTMCKDLGIKLIAEGIEHIEERDFLADCGISLMQGYLFAKP”, the “soluble on expression in E. coli” value was “not soluble”.

On to “MSFKDLRSFIDHLEANGELKRISYPVDPHLEMTEIADRVLRAQGPALLFENPTNHSMPVLANLFGTPKRVAMALGKDDPLALREVGELLAFLKEPEPPRGFKDAISKIPMFKQALNMPPKTVRNPACQQVVKTGDDVDLTQLPIQHCWPGDVAPLVTWGLTITKGPRKSRQNLGIYRQQLLGKNKLIMRWLSHRGGALDFADFKEQFPGERYPVVVALGSDPVTILGAVTPVPDAMSEYAFAGLLRGERTEVCKALSCDLEVPASSEIILEGYIDPNEMAEEGPYGDHTGYYNETDKFPVFTVTHITHRKDPIYHSTYTGRPPDEPAMLGVALNEVFVPILRKQYPEIIDFYLPPEGCSYRMAVISIRKQYPGHAKRVMMGAWSFLRQFMYTKFIVVVDDDVNCRDWNDVIWAITTRMDPKRDTVMIDNTPIDYLDFASPVVGLGSKMGLDATNKWEGETNREWGTPIVMDPKVKQKIDSIWDELGIS”, for which the “soluble on expression in E. coli” value is reported as “soluble”.

As for “MFRRARPLRKTTRINGLERNGLKRSGRGWNAPGADVLARHCPLLPGRADAIGRGRLIVATWPKSAAKQRQNVPPARSRTRWRSMSSCHRSGPQKRGRDSGAVTAVTGAPNGQATAFVSLNDEVDAVAAAANLWVRAKSPLHGHAEHLRCEARLATFGARRQRQRVRGRARPECPRRRRSAMADMPPSAP”, the “soluble on expression in E. coli” value was “not soluble”.

For the sequence “MPWGWIEALLGHACPGCGGPLDLPALCGRCRAGLEAFSTGEMVYLGHYARVGPLVRALKYGRREALARALAEPLARAVAARGWRLQGVTAVPTLPHRLALRGYNPPEVLARALAKALGVPYRPVLFRRRYTPGQPTRGFKERRFLPGDLFGARVRVEGAWLLVDDVLTSGATFLRARGALLEAGAAHVYGAFLAVRDPRALGPYR”, the “soluble on expression in E. coli” value is given as “soluble”.

Regarding “MRYSDGRYEADIDITVEEWKSMLQNPKIFGPKYLDMILKWYYEIDHRATSQAIMAKYPSELKGTPYNGYVIGLTNRIIKYLNRFEVIGTQGNESKFIVPFEGWYEDYKEGNHFVWKVRDELVQAIEELGLVDEKKFPSEEEELKSYSIENRKDGKIIMRYTTQYERNPINRRNAIRIHGTVCQGCGFDFEKVYGEIGKDYIEVHHIKPLYEGGGSVPINAETDLICVCANCHRMIHRRKDKVLSLKELQKLLLANKNLEHHHHHH”, the “soluble on expression in E. coli” value is on record as “soluble”.

With “MNNREKEILAILRRNPLIQQNEIADMLQISRSRVAAHIMDLMRKGRIKGKGYILTEQEYCVVVGTINMDIRGMADIRYPQSASHPGTIHCSAGGVGRNIAHNLALLGRDVHLLSVIGDDFYGEMLLEETRRAGVNVSGCVRLHGQSTSTYLAIANRDDQTVLAINDTHLLEQLTPQLLNGSRDLLRHAGVVLADCNLTAEALEWVFTLADEIPVFVDTVSEFKAGKIKHWLAHIHTLKPTLPELEILWGQAITSDADRNTAVNALHQQGVQQLFVYLPDESVYCSEKDGEQFLLTAPAHTTVDSFGADDGFMAGLVYSFLEGYSFRDSARFAVACAAISRASGSLNNPTLSADNALSLVPMV”, the “soluble on expression in E. coli” value was “not soluble”.

The values are drawn from the DeepSol protein solubility set.
